Assay results published in patent US10487318.
Residue numbers refer to the chain shown, from its start. Numbers in names are those of the source.

T1: 33mer peptide (LQLQPFPQPQLPYPQPQLPYPQPQLPYPQPQPF)
T1 chain: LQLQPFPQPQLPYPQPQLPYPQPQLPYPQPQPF

T2: fluorescently quenched α-gliadin hexapeptide analogue QXL520-PQPQLP-K(5-FAM)-NH2
T2 chain: PQPQLP

B1: Homologue 12 (NCBI YP_003658449) (protein)
chain: MTQPRYTPLPGSEREAPLLAARSNATAARASRAQTASATVVLRRRSELPEALVLDQQFISSDELAARYGADPVDIEKVRSVLERFKVSVVEVDAASRRVKVEGAVADIERAFNIALHSASGTDPHSGRGFEYRYRTGVLSVPAELGGIVTAVLGLDNRRQAETRLRVVPAAALGSSYTPVQLGEIYNFPQDATGAGQRIAIIELGGGYTPAGLRRYFASLGVVPPKVAAVSVDGAQNAPGPDPGADGEVQLDVEVAGALAPGAHVLVYFAPNTDQGFLDAVSQAAHATPPPTAISISWGASEDSWTASARDALNQALRDAAALGVTVTAAAGDSGSSDGVPDRRAHVDFPASSPYVLATGGTSLRADPATGVVQSETVWNDSQGSTGGGVSDVFPRPAWQAHVDVPHAGRGVPDVSAVADPATGYQVLVDNQPAVIGGTSAVAPLWAALVARLAESLGRPLGLLQPLVYPRTPGSTAYPGFRDITIGNNGAYKAGKGWDAATGLGVPDGTELLAHLRGLNGSE
B2: Homologue 13 (NCBI YP_004348568) (protein)
chain: MARHLHAGSEPKVITESKCIGACDPAERIHVTVMLRREGEQALDALVDKLASGDPAAKPVSREDFAKRFGARADDIQHTEAFAKRHQLTVERVDPVQSVVELAGTIAQFENAFGVKLEKYEHHAIGSFRARTGAIALPDELHDAVTAVLGLDTRPQAHPHFRFRPPFQPARSGAGTSYTPLQLASIYNFPEGDGAGQCIALVELGGGYRAADIRQYFEQLGVKPPKLVDVSVNGGRNAPTDDPNGPDGEVALDIEVAGAIAPGATIAVYFAGNSDAGFIQSVNQAIHDSTNRPSVVSISWGGPEASWTQQSITAFNNVLKTAASLGVTVCAASGDSGSSDGLQDGSNHVDFPASSPYVLACGGTTLDAQAGQGIRREVVWNDEAASGGAGGGGVSAVFPAPSYQKGLSAKATGGGSTPLSQRGVPDVAGDASPTTGYIISIAGTTAVLGGTSAVAPLWAALIARINANGKSPVGWANPKLYAQPGAFHDITQGNNGAFAASEGWDACTGLGSPDGAKVAAALQGASGGSQQGRATGA
B3: Homologue 14 (NCBI YP_001861188) (protein)
chain: HMTKHPLPGSERVLAPGSKVVAQCDPSETIEVVVVLRRKNEQQFAQMMKTIEAGAAGARPLTREELEQRFGALPEDIAKLKAFAAQHGLSVVREDASARTVVLSGRIEQFQQAFDVQLQHYEHQSMGRFRGRTGAISVPDELHGVVTAVLGLDDRPQARPHFRIRPPFQPARAQSASSFTPLQLASLYRFPQGDGSGQCIGIVELGGGYRTADLDSYFSSLGVGSPKVVAVGVDQSGNQPTGDPNGPDGEVTLDIEIAGALAPAATIAVYFTTNSDAGFIDAVSQAVHDRTNQPSVISISWGAPESMWTAQSMKALNDVLQSAAAIGVTVCAASGDSGSSDGVGDGRDHVDFPASSPYVLACGGTSLQGSGRTVAHEVVWNDGSNGGATGGGVSGAFPVPAWQEGLSTSAAQGGQRALTGRGVPDVAGDASPLTGYDVIVDGNNTVIGGTSAVAPLWAALIARINGAKGAPVGFVNPKLYKASACNDITQGNNGSYAATTGWDACTGLGSPDGVKVAAAL
B4: Homologue 26 (NCBI YP_004030750) (protein)
chain: MHSYLKQQSHMQSYLEQENHMRSYLEMRKKPYFDDLANIRPGGLTPAQVCQAYQFAKVQPVRPVKLGIVSLAGQYLSSDMSKAFTGYGLPTPVVSTAGSQVLGDLWSNVENMMDIEIAGAAWAYATGTAATLLMQFEPNNETGIPNAINALVAAGCEVISISWGAPANLQTMEAITARKEACKQAAVQNVHVFAASGDESLNDGTNSRTPDDPCCDPNVWGVGGTRLVLQADGSIAQESAWGDGNAADKGGGGGFDSREPLPDYQVGVVHSEHRGSPDSSANADPGTGYAIVANGQWLIGGGTSASAPLTAGYVAAILSTLPGPISQSVLQRKLYTAHKTAFRDILLGSNGAPARPGWEEATGLGSINGPGLAAALQS
B5: Kumamolysin-As S262K, D293N, N291D, G319S, D358G, D368H (protein)
chain: MSDMEKPWKEGEEARAVLQGHARAQAPQAVDKGPVAGDERMAVTVVLRRQRAGELAAHVERQAAIAPHAREHLKREAFAASHGASLDDFAELRRFADAHGLALDRANVAAGTAVLSGPVDAINRAFGVELRHFDHPDGSYRSYLGEVTVPASIAPMIEAVLGLDTRPVARPHFRMQRRAEGGFEARSQAAAPTAYTPLDVAQAYQFPEGLDGQGQCIAIIELGGGYDEASLAQYFASLGVPAPQVVSVSVDGASNQPTGDPKGPDGEVELDIEVAGALAPGAKFAVYFAPDTNAGFLDAITTAIHDPTLKPSVVSISWSGPEDSWTSAAIAAMNRAFLDAAALGVTVLAAAGDSGSTGGEQDGLYHVHFPAASPYVLACGGTRLVASGGRIAQETVWNDGPDGGATGGGVSRIFPLPAWQEHANVPPSANPGASSGRGVPDLAGNADPATGYEVVIDGEATVIGGTSAVAPLFAALVARINQKLGKAVGYLNPTLYQLPADVFHDITEGNNDIANRAQIYQAGPGWDPCTGLGSPIGVRLLQALLPSASQPQPGSTENLYFQSGALEHHHHHH
B6: Kumamolysin-As T357A (protein)
chain: B5 chain with K262S, D291N, N293D, S319G, T357A, G358D, H368D
B7: Kumamolysin-As D358G (protein)
chain: B5 chain with K262S, D291N, N293D, S319G, H368D
B8: Kumamolysin-As G319S, S354N, D358G, D368H (protein)
chain: B5 chain with K262S, D291N, N293D, S354N
B9: Kumamolysin-As D293A (protein)
chain: B5 chain with K262S, D291N, N293A, S319G, G358D, H368D
B10: Kumamolysin-As G319S, D368S (protein)
chain: B5 chain with K262S, D291N, N293D, G358D, H368S
B11: Kumamolysin-As G319S, D358G, D368H (protein)
chain: B5 chain with K262S, D291N, N293D
B12: Kumamolysin-As D358G, D368H (protein)
chain: B5 chain with K262S, D291N, N293D, S319G
B13: Kumamolysin-As N291D, G319S, D358G, D368H (protein)
chain: B5 chain with K262S, N293D
B14: Kumamolysin-As D358N (protein)
chain: B5 chain with K262S, D291N, N293D, S319G, G358N, H368D
B15: Kumamolysin-As V119D, S262K, D293T, N291D, G319S, D358G, D368H (protein)
chain: B5 chain with V119D, N293T

Biological target: T1, 33mer peptide …
B1 was tested, and the “Degradation pattern of 33mer (60 min)” value was “WT-like”.
With B2 the “Degradation pattern of 33mer (60 min)” value was “Max-like” and the “activity against the 33mer peptide” value was “demonstrated significant activity against the 33mer peptide”.
B3 was tested, and the “Degradation pattern of 33mer (60 min)” value was “WT-like - minor”.
With B4 the “Degradation pattern of 33mer (60 min)” value was “Max-like” and the “activity against the 33mer peptide” value was “had very strong activity comparable to KumaMax™ at breaking down the 33mer peptide”.

Biological target: T2, fluorescently quenched α-gliadin …
For B5, the Fold Change in Activity of PQ Hydrolysis Relative to Wild Type Kumamolysin-As was 62 fold.
B6 showed a Fold Change in Activity of PQ Hydrolysis Relative to Wild Type Kumamolysin-As of 2 fold.
B7 gave a Fold Change in Activity of PQ Hydrolysis Relative to Wild Type Kumamolysin-As of 3 fold.
B8 was tested, and the Fold Change in Activity of PQ Hydrolysis Relative to Wild Type Kumamolysin-As was 5 fold.
Work on B9 yielded a Fold Change in Activity of PQ Hydrolysis Relative to Wild Type Kumamolysin-As of 3 fold.
In the case of B10, the Fold Change in Activity of PQ Hydrolysis Relative to Wild Type Kumamolysin-As is reported as 2 fold.
In the case of B11, the Fold Change in Activity of PQ Hydrolysis Relative to Wild Type Kumamolysin-As is reported as 7 fold.
B12 was tested, and the Fold Change in Activity of PQ Hydrolysis Relative to Wild Type Kumamolysin-As was 6 fold.
For B13, the Fold Change in Activity of PQ Hydrolysis Relative to Wild Type Kumamolysin-As was 93 fold.
B14 was tested, and the Fold Change in Activity of PQ Hydrolysis Relative to Wild Type Kumamolysin-As was 4 fold.
Work on B15 yielded a Fold Change in Activity of PQ Hydrolysis Relative to Wild Type Kumamolysin-As of 120 fold.
